Test results reported in patent US12630596B2, “Engineered lysin-human defensin protein” (priority 2018, dated 2026).
In brackets after ≈: the same amount, converted by molar mass. Read-outs that look alike come from different tables or passages of the source.

B1: LCD: Catalytic domain (179 aa) of the lysin of C. difficile phage phiC2; SEQ ID NO:2; included as a control (protein)
chain: MKICITVGHSILKSGACTSADGVVNEYQYNKSLAPVLADTFRKEGHKVDVIICPEKQFKTKNEEKSYKIPRVNSGGYDLLIELHLNASNGQGKGSEVLYYSNKGLEYATRICDKLGTVFKNRGAKLDKRLYILNSSKPTAVLIESFFCDNKEDYDKAKKLGHEGIAKLIVEGVLNKNIN
notes: Catalytic domain (179 aa) of the lysin of C. difficile phage phiC2; included as a control

Experiments:
C. difficile R20291 [1] = test: Minimum inhibitory concentration (MIC) on strain R20291; type: cell-based, Clostridium difficile; conditions: strain R20291, BHIS, 37° C. for 18 h
Method: The minimum inhibitory concentrations (MICs) of LHD and LCD were determined using the protocol of Wiegand, et al. (Wiegand, Hilpert et al. 2008) with some modifications, as described previously (Gilmer, Schmitz et al. 2017). In brief, strain R20291 was grown in BHIS and adjusted to ˜5×10^5 cells/ml in BHIS, and distributed into the wells of a 96-well round bottom polystyrene microtiter plate. In the wells of each row, either sterile-filtered lysin or control vehicle (metronidazole, vancomycin and fidaxomicin) was added with a final concertation varied from 200 μg/ml to 0.19 μg/ml (2-fold dilution) (Wiegand, Hilpert et al. 2008). The plates were incubated at 37° C. for 18 h. The MIC was “the lowest or minimum concentration of lysin or control vehicle that prevented the formation of a cell pellet (a measure of growth) on the bottom of the wells” (Gilmer, Schmitz et al. 2017). The MICs were also confirmed by measuring the OD600 values using a Bio-Rad plate reader (Bio-Rad, Hercules, CA).

C. difficile R20291 [2] = test: Optical drop assay, lytic activity on C. difficile R20291; type: cell-based, Clostridium difficile; conditions: strain R20291, 200 μg/ml
Method: (§1) The lytic activity of proteins LHD and LCD against C. difficile strains was determined as previously described (Wang, Euler et al. 2015). Briefly, C. difficile strains were cultured in an anaerobic chamber to mid-log phase, and the bacterial pellets were harvested by centrifugation at 3000×g for 5 min. Pellets were washed twice and re-suspended in sterilized ddH2O, and resuspensions were not buffered. Prior to tests, bacterial optical density at 600 nm (OD600) was adjusted to approximately 0.8-1.0. Proteins LHD and LCD were added into the cell re-suspension with the final concentration of 200 μg/ml. The drop in OD600 at 37° C. was measured every 10 minutes for 60 min˜90 min. Bacterial re-suspension with sterilized water was also set as a control. Three repeats were included in each test.

[3] = target: Clostridium difficile toxin B (TcdB) (Clostridioides difficile, UniProt P18177); test: Inhibition of TcdB cytotoxicity in CT26 cells (cell rounding, non-glucosylated Rac1 Western blot); type: cell-based; conditions: pre-treatment 750 ng/ml 1 hr, TcdB 15 ng/ml 5 hrs
Method: (§2) (FIG. 5A) LHD inhibits TcdB-induced cell rounding. CT26 cells in 12-well plates were exposed to HD or LHD at 750 ng/ml (50 times of TcdB concentration) or nothing for 1 hour, followed by exposure to TcdB at 15 ng/ml for 5 hours. (FIG. 5B) Western-blot analysis of non-glucosylated Rac1 in CT26 cells treated with TcdB in the presence or absence of LHD or HD. TcdB glucosylates Rac1 in cells, serving as a readout for toxin cytotoxicity. Quantitation of Rac1 levels in Western-blot was shown in low panel (*p<0.05). (FIG. 5C) CT26 cells were lysed, and the cytosolic fraction was exposed to TcdB (15 ng/ml) with or without HD at 750 ng/ml (50 times of TcdB concentration) or LHD at 1500 ng/ml (same molecular concentration as HD) or nothing for 1 h followed by Western Blot analysis using a monoclonal antibody that only recognizes non-glucosylated Rac1. β-actin was used as an equal loading control. Quantitation of Rac1 levels in Western-blot was shown in low panel (****p<0.0001).
It was reported that the human defensin protein HD5 (HD) could inhibit TcdB (Giesemann, Guttenberg et al. 2008). Therefore, we evaluated the inhibitory effects of LHD and HD on TcdB. Briefly, CT26 cells in 12-well plates were exposed to LHD, synthesized HD or PBS at 750 ng/ml (50 times of TcdB concentration) for 1 hr, followed by exposure to TcdB at 15 ng/ml for 5 hrs. Total cell lysates were subjected to 12% SDS-PAGE separation, and transferred onto a Nylon membrane. Following blocking for 1 hr at room temperature with 5% skim milk, the membrane was incubated overnight at 4° C. with RAC1 antibody (1:1000, Cat: 610650, BD Biosciences) and β-actin antibody (1:10000, Cat: A5441, Sigma-Aldrich).

[4] = target: Glucosyltransferase (GT) activity of TcdB (Clostridioides difficile, UniProt P18177); test: TcdB glucosyltransferase activity on Rac1 in CT26 cytosolic fraction; type: biochemical, Clostridium difficile; conditions: TcdB 15 ng/ml, 750 ng/ml, 1 hr
Method: as §2
Glucosyltransferase (GT) activity of TcdB was also measured by its ability to glucosylate Rho GTPase Rac1 in cell lysates (Zhang, Shi et al. 2013). CT26 cell pellets were resuspended in a reaction buffer (50 mM HEPES, pH 7.5, 100 mM KCl, 1 mM MnCl2 and 2 mM MgCl2), and lysed by passing through a 30 G needle for 40 times. […]

[5] = tested on: C. difficile strains M120, VPI 10463, CD630, LC693, 1377; test: Optical drop assay, lytic activity on other clinical epidemic C. difficile strains; type: cell-based, Clostridium difficile; conditions: different types of clinical epidemic strains, 200 μg/ml
Source text: C. difficile strains R20291 (ribotype 027), M120 (ribotype 078), VPI 10463 (ribotype 087; ATCC 43255), CD630 (ribotype 012), LC693 (ribotype unknown, ST201), and 1377 (ribotype 012) were used in this study. Strains M120 and VPI 10463 were provided by Dr. Joseph A. Sorg from Texas A&M University. Strains R20291 and CD630 were provided by Dr. Abraham L. Sonenshein from Tufts University. Strains 1377 and LC693 were epidemic clinical strains in China (Li, Liu et al. 2015, Peng, Liu et al. 2017).
as §1

[6] = Clostridioides difficile, read-out: MIC

Chain of Glucosyltransferase (GT) activity of TcdB (P18177 whole entry): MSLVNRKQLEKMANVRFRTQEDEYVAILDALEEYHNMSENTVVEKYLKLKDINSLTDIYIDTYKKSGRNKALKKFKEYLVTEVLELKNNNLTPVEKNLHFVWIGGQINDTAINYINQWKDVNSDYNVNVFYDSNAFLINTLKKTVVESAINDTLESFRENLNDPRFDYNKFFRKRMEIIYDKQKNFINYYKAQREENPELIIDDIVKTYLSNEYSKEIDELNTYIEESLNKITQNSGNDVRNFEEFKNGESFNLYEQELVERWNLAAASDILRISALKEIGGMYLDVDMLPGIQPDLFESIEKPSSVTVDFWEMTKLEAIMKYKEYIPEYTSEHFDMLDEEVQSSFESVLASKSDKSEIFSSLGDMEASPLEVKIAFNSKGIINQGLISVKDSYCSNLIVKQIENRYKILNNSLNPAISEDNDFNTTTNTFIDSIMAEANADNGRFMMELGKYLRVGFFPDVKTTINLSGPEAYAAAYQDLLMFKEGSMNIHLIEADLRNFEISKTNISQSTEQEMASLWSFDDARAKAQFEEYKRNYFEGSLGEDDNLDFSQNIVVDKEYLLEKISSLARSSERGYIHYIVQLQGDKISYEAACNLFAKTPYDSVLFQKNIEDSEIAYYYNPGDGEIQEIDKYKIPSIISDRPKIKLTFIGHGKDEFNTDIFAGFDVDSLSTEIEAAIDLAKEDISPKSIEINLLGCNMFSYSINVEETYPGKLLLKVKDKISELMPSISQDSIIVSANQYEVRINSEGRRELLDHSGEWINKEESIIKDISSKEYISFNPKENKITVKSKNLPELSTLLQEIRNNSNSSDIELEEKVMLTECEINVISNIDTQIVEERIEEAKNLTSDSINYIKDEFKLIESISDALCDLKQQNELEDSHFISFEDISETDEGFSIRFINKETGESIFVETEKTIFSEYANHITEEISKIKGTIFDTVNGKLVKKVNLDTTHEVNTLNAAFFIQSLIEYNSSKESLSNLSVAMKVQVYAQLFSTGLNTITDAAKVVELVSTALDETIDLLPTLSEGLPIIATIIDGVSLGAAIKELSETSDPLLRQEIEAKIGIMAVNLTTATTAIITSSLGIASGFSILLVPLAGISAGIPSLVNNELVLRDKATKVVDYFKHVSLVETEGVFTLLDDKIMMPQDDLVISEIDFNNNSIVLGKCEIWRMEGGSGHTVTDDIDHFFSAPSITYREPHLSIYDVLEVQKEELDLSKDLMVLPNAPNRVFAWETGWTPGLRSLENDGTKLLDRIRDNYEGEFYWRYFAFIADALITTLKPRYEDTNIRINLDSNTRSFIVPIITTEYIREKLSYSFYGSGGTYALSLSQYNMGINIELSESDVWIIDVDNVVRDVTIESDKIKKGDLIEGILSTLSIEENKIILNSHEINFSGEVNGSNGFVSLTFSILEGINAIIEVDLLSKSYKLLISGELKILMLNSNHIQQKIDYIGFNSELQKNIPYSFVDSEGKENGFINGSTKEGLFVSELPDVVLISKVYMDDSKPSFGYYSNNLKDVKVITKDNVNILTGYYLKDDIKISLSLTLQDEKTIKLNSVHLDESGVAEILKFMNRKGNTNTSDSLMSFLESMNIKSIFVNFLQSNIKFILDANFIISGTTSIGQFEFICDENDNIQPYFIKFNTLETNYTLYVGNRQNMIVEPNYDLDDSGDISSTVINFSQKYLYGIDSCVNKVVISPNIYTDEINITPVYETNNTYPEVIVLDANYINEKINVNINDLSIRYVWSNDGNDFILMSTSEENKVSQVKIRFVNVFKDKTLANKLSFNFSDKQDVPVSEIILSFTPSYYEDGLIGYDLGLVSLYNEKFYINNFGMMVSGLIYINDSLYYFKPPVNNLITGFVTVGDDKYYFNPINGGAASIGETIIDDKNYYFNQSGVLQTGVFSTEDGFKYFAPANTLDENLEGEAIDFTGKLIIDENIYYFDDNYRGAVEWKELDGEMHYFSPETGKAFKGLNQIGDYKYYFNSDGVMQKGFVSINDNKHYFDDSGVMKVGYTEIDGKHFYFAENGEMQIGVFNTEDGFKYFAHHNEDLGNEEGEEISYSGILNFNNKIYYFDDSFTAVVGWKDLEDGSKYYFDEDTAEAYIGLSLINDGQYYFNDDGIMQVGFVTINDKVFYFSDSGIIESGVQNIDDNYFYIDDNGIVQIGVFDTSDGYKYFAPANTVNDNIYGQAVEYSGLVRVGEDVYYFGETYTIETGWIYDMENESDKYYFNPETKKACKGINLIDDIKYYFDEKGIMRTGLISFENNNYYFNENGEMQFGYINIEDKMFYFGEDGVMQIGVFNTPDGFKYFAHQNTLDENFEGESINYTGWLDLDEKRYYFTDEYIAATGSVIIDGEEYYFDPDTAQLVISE
Chain of Clostridium difficile toxin B (TcdB) (P18177 whole entry): as above

Molecule | MIC (C. difficile R20291 [1]; [6]) [µg/mL] | lytic activity (drop in OD600) (C. difficile R20291 [2]) | glucosyltransferase activity of TcdB [4] | also measured
CCc1c(Cl)c(O)c(Cl)c(O)c1C(=O)O[C@H]1[C@H](O)[C@H](OC)[C@H](OC/C2=C\C=C\C[C@H](O)/C(C)=C/[C@H](CC)[C@@H](O[C@@H]3OC(C)(C)[C@@H](OC(=O)C(C)C)[C@H](O)[C@@H]3O)/C(C)=C/C(C)=C/C[C@@H]([C@@H](C)O)OC2=O)O[C@@H]1C [Fidaxomicin, fidaxomicin] | 0.25 (≈ 0.236 µM) | – | – | –
HD5: Human alpha-defensin 5 peptide (32 aa), synthesized; SEQ ID NO:3 (ATCYCRTGRCATRESLSGVCEISGRLYRLCCR) [reference compound] | – | moderate lytic activity | significantly inhibited | cell rounding caused by TcdB [3]: decreased cell rounding; non-glucosylated Rac1 in cells (readout of cytotoxicity of TcdB) [3]: inhibited the cytotoxicity
Cc1ncc([N+](=O)[O-])n1CCO [Metronidazole, metronidazole] | 4 (≈ 23.4 µM) | – | – | –
CN[C@H](CC(C)C)C(=O)N[C@H]1C(=O)N[C@@H](CC(N)=O)C(=O)N[C@H]2C(=O)N[C@H]3C(=O)N[C@H](C(=O)N[C@H](C(=O)O)c4cc(O)cc(O)c4-c4cc3ccc4O)[C@H](O)c3ccc(c(Cl)c3)Oc3cc2cc(c3O[C@@H]2O[C@H](CO)[C@@H](O)[C@H](O)[C@H]2O[C@H]2C[C@](C)(N)[C@H](O)[C@H](C)O2)Oc2ccc(cc2Cl)[C@H]1O [Vancomycin, vancomycin] | 4 (≈ 2.76 µM) | – | – | –
B1 | – | potent lytic activities | significantly inhibited | lytic activity (drop in OD600) [5]: potent lytic activities; MIC (C. difficile R20291 [1]): 1.56 µg/mL
